Source: patent publication US20230348630A1 (BEIJING MABWORKS BIOTECH, published 2023)
Read-outs that look alike come from different tables or passages of the source.

B1: anti-CD3/BCMA bispecific antibody MBS305-H1-KIH (bispecific antibody, human IgG1, kappa, L234A L235A, N297A)
heavy 1: QVQLVQSGAEVKKPGASVKVSCKASGYTFTNHIIHWVRQAPGQGLEWMGYINPYPGYHGYNDKFSGRATMTSDTSTSTVYMELSSLRSEDTAVYYCARDGYYRDQDVLDYWGQGTLVTVSSASTKGPSVFPLAPSSKSTSGGTAALGCLVKDYFPEPVTVSWNSGALTSGVHTFPAVLQSSGLYSLSSVVTVPSSSLGTQTYICNVNHKPSNTKVDKKVEPKSCDKTHTCPPCPAPEAAGGPSVFLFPPKPKDTLMISRTPEVTCVVVDVSHEDPEVKFNWYVDGVEVHNAKTKPREEQYASTYRVVSVLTVLHQDWLNGKEYKCKVSNKALPAPIEKTISKAKGQPREPQVYTLPPSREEMTKNQVSLSCAVKGFYPSDIAVEWESNGQPENNYKTTPPVLDSDGSFFLVSKLTVDKSRWQQGNVFSCSVMHEALHNHYTQKSLSLSPGK
light 1: not shown
heavy 2: QVQLVQSGAEVKKPGASVKVSCKASGYTFTNHIIHWVRQAPGQGLEWMGYINPYPGYHGYNDKFSGRATMTSDTSTSTVYMELSSLRSEDTAVYYCARDGYYRDQDVLDYWGQGTLVTVSSGGGGSGGGGSGGGGSGGGGSDIQMTQSPSSLSASVGDRVTITCKASQDISQYLNWYQQKPGKAPKLLIYYTSGLHPGVPSRFSGSGSGTDFTFTISSLEPEDEATYYCQQGYALPWTFGQGTKLTAKRGGGGSGGGGSGGGGSEVQLVESGGGLVQPGRSLRLSCAASGFTFSDYTMHWVRQAPGKGLEWVSGISWNTGTIGYADSVKGRFTISRDNAKKSLYLQMNSLRAEDTALYYCAKDNSGYGHYYFGMDVWGQGTTVTVASASTKGPSVFPLAPSSKSTSGGTAALGCLVKDYFPEPVTVSWNSGALTSGVHTFPAVLQSSGLYSLSSVVTVPSSSLGTQTYICNVNHKPSNTKVDKKVEPKSCDKTHTCPPCPAPEAAGGPSVFLFPPKPKDTLMISRTPEVTCVVVDVSHEDPEVKFNWYVDGVEVHNAKTKPREEQYASTYRVVSVLTVLHQDWLNGKEYKCKVSNKALPAPIEKTISKAKGQPREPQVYTLPPSREEMTKNQVSLWCLVKGFYPSDIAVEWESNGQPENNYKTTPPVLDSDGSFFLYSKLTVDKSRWQQGNVFSCSVMHEALHNHYTQKSLSLSPGK
light 2: not shown
B2: anti-CD3/BCMA bispecific antibody MBS305-H2-KIH (bispecific antibody, human IgG1, kappa, L234A L235A, N297A)
heavy 1: QVQLVQSGAEVKKPGASVKVSCKASGYTFTNHIIHWVRQAPGQGLEWMGYINPYPGYHGYNDKFSGRATMTSDTSTSTVYMELSSLRSEDTAVYYCARDGYYRDQDVLDYWGQGTLVTVSSASTKGPSVFPLAPSSKSTSGGTAALGCLVKDYFPEPVTVSWNSGALTSGVHTFPAVLQSSGLYSLSSVVTVPSSSLGTQTYICNVNHKPSNTKVDKKVEPKSCDKTHTCPPCPAPEAAGGPSVFLFPPKPKDTLMISRTPEVTCVVVDVSHEDPEVKFNWYVDGVEVHNAKTKPREEQYASTYRVVSVLTVLHQDWLNGKEYKCKVSNKALPAPIEKTISKAKGQPREPQVYTLPPSREEMTKNQVSLSCAVKGFYPSDIAVEWESNGQPENNYKTTPPVLDSDGSFFLVSKLTVDKSRWQQGNVFSCSVMHEALHNHYTQKSLSLSPGK
light 1: not shown
heavy 2: QVQLVQSGAEVKKPGASVKVSCKASGYTFTNHIIHWVRQAPGQGLEWMGYINPYPGYHGYNDKFSGRATMTSDTSTSTVYMELSSLRSEDTAVYYCARDGYYRDQDVLDYWGQGTLVTVSSGGGGSGGGGSGGGGSGGGGSDIQMTQSPSSLSASVGDRVTITCKASQDISQYLNWYQQKPGKAPKLLIYYTSGLHPGVPSRFSGSGSGTDFTFTISSLEPEDEATYYCQQGYALPWTFGQGTKLTAKRGGGGSGGGGSGGGGSEVQLVESGGGLVQPGRSLRLSCAASGFTFDDFAMHWVRQAPGKGLEWVSGITWNSGSVGYADSVKGRFTISRDNAKKSLYLQMNSLRAEDTALYYCAKDRSGYGHYYYGMDVWGQGTTVTVASASTKGPSVFPLAPSSKSTSGGTAALGCLVKDYFPEPVTVSWNSGALTSGVHTFPAVLQSSGLYSLSSVVTVPSSSLGTQTYICNVNHKPSNTKVDKKVEPKSCDKTHTCPPCPAPEAAGGPSVFLFPPKPKDTLMISRTPEVTCVVVDVSHEDPEVKFNWYVDGVEVHNAKTKPREEQYASTYRVVSVLTVLHQDWLNGKEYKCKVSNKALPAPIEKTISKAKGQPREPQVYTLPPSREEMTKNQVSLWCLVKGFYPSDIAVEWESNGQPENNYKTTPPVLDSDGSFFLYSKLTVDKSRWQQGNVFSCSVMHEALHNHYTQKSLSLSPGK
light 2: not shown
B3: anti-CD3D&E antibody D8E5, full-length human IgG1 (L234A/L235A/N297A)/kappa (antibody, V domains shown)
VH: EVQLVESGGGLVQPGRSLRLSCAASGFTFDSYSMHWVRQAPGKGLEWVSGISWNSGSLGYADSVKGRFTISRDNAKKSLYLQMNSLRAEDTALYYCAKDRSGYGHYYYGMDVWGQGTTVTVAS
VL: EIVMTQSPATLSVSPGERATLSCRASRSVSLNVAWYQQKPGQAPRLLIYGASTKYTGIPARFSGSGSGTEFTLTISSLQSEDFAVYYCQQYINWPLTFGGGTKVEIKR
B4: anti-CD3D&E antibody 7-1A12, full-length human IgG1 (L234A/L235A/N297A)/kappa (antibody, V domains shown)
VH: EVQLVESGGGLVQPGRSLRLSCAASGFTFSDYTMHWVRQAPGKGLEWVSGISWNTGTIGYADSVKGRFTISRDNAKKSLYLQMNSLRAEDTALYYCAKDNSGYGHYYFGMDVWGQGTTVTVAS
VL: EIVMTQSPATLSVSPGERATLSCRASQSVSRNVAWYQQKPGQAPRLLIYGASTRQTGIPARFSGSGSGTEFTLTISSLQSEDFAVYYCQSYINWPLQFGGGTKVEIKR

Assays:
[1] = target: T1, human BCMA on HEK293A/human BCMA cells (human, UniProt Q02223 1-184); experiment: flow cytometry on HEK293A/human BCMA cells
T1 sequence: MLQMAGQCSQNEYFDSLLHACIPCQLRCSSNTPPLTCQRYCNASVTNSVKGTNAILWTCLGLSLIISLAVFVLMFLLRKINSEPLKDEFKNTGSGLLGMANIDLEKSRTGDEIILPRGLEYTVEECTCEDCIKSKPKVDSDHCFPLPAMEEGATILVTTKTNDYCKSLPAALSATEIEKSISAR
Procedure: (§1) The anti-BCMA antibody's binding capability to cell surface BCMAs was tested by FACS. Briefly, HEK293A/human BCMA cells, HEK293A/monkey BCMA cells and HEK293A/mouse BCMA cells, as generated in Example 1, were collected, digested with trypsin, and subjected to centrifugation at 300 g for 5 min. The cells were suspended in PBS, and subjected to centrifugation again. The cells were re-suspended in PBS with 2% FBS at the cell density at 4×10⁶/ml, and 50 μl cells were seeded onto a U-bottom plate. […] The plate was washed with 2% FBS-PBS for three times, added with 50 μl PE-labeled goat-anti-human IgG (H+L) (1: 500), and incubated at room temperature for 45 min. The plate was washed with 2% FBS-PBS again for three times, and added with 150 μl 2% FBS-PBS to suspend the cells. The plate was measured for cell fluorescence using a cytometry, and the data was processed with FlowJo and analyzed with GraphPad.
(§2) Following the protocol of Example 6, the bispecific antibodies of the disclosure were tested for their binding capability to the HEK293A/human BCMA cells, HEK293A/monkey BCMA cells, and HEK293A/mouse BCMA cells as generated in Example 1.

[2] = target: T2, CD3D&E protein (Cat #: CT038-H2508H, Sino Biological) (human, UniProt P04234 22-105; P07766 23-126); experiment: SPR (BIAcore 8K), protocol of Example 10
T2 construct: Bought complex of the delta and epsilon chains; also called CD3D&E complex; human CD3D&E complex
T2 sequence (P04234 22-105, form in doubt, chain 1 of 2): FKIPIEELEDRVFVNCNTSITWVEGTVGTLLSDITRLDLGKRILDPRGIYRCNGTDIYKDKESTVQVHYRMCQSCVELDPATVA
T2 sequence (P07766 23-126, form in doubt, chain 2 of 2): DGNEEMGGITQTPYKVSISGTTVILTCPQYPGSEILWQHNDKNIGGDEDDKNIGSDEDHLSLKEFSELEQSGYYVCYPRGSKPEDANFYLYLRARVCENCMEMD
Procedure: (§3) Following the protocols in Example 5 and Example 10, the bispecific antibodies of the disclosure were tested for their binding affinity to CD3D&E and human BCMA.

[3] = target: monkey BCMA on HEK293A/monkey BCMA cells (monkey, UniProt Q02223 1-184 (human entry)); experiment: flow cytometry on HEK293A/monkey BCMA cells
Chain of monkey BCMA on HEK293A/monkey BCMA cells (Q02223 other isoform, or with tags, fused parts or gaps): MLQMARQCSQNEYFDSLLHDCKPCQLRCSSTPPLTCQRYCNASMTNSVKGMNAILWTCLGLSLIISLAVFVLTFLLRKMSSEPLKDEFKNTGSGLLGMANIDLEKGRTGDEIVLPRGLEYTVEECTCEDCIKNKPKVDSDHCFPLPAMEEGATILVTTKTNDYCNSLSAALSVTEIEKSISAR
Procedure: as §1, §2

[4] = target: T2, CD3D&E protein (Cat #: CT038-H2508H, …); experiment: ELISA, coated CD3D&E
Procedure: (§4) The purified bispecific antibodies were tested for their binding capability to recombinant human CD3 and human BCMA proteins by ELISA, following the protocols in Example 4 and Example 9.

CD3 on Jurkat cells [5] = target: T3, CD3 on Jurkat cells (UniProt P04234 22-171; P07766 23-207); experiment: flow cytometry on Jurkat cells
T3 construct: whole, on cells
T3 sequence (P04234 22-171, chain 1 of 2): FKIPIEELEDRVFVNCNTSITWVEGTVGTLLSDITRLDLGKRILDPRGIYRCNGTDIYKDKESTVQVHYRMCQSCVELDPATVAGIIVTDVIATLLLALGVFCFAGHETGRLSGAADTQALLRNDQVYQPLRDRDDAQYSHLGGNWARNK
T3 sequence (P07766 23-207, chain 2 of 2): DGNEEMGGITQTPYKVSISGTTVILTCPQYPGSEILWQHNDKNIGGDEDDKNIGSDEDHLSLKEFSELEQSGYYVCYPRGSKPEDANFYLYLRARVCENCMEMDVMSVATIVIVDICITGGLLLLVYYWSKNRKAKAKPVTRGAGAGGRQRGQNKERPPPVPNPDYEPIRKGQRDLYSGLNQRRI
Procedure: (§5) Jurkat cells were collected, centrifuged at 300 g for 5 min, and suspended in PBS. After another centrifugation, the cells were suspended in 2% FBS-PBS at the cell density of 3×10⁶/ml, and […] were plated onto a U-bottom plate. The plate was added with 50 μl serially diluted anti-CD3 antibodies of the disclosure in 2% FBS-PBS (4-fold dilution, starting at 20 μg/ml), and incubated at room temperature for 1 h. The plate was washed with 2% FBS-PBS for three times, added with 50 μl PE-labeled goat-anti-human IgG (H+L) (1: 500), and incubated at room temperature for 45 min. The plate was washed with 2% FBS-PBS again for three times, and added with 150 μl 2% FBS-PBS to suspend the cells. The plate was measured for cell fluorescence using a cytometry, and the data was processed with FlowJo and analyzed with GraphPad.
Following the protocol of Example 11, the bispecific antibodies of the disclosure were tested for their binding capability to Jurkat cells.

[6] = target: T4, BCMA-his protein (Cat #: BCA-H522y, ACRO) (human, UniProt Q02223 1-54); experiment: SPR (BIAcore 8K), protocol of Example 5
T4 construct: Bought recombinant protein; the construct is most likely only a soluble part of it; also called BCMA protein; human BCMA
T4 sequence: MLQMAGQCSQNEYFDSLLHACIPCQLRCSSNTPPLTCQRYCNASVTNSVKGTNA
Procedure: as §3

[7] = target: T4, BCMA-his protein (Cat #: BCA-H522y, …); experiment: ELISA, coated BCMA protein
Procedure: Briefly, an ELISA plate was coated with 100 μl 1 μg/ml BCMA protein (Cat #: BCA-H522y, ACRO) in PBS overnight at 4° C. Then, the plate was blocked with 250 μl PBST with 4% skimmed milk at room temperature for 1 h. […] The negative control well was added with PBST instead of the antibody. The plate was washed with PBST for three times, added with 100 μl HRP conjugated goat anti-human IgG (1:7000, Cat #: 31413, thermofisher), and incubated at room temperature for 1 h. The plate was washed again with PBST for four times, added with 100 μl freshly prepared TMB (Cat #: 555214, BD, USA), and left still for color development, which was terminated with 50 μl 10% H₂SO₄. The absorbance was read at 450 nm, and the data was processed and analyzed using GraphPad.
as §4

[8] = target: T5, mouse BCMA on HEK293A/mouse BCMA cells (mouse, UniProt O88472 1-185); experiment: flow cytometry on HEK293A/mouse BCMA cells [continued) E]
T5 sequence: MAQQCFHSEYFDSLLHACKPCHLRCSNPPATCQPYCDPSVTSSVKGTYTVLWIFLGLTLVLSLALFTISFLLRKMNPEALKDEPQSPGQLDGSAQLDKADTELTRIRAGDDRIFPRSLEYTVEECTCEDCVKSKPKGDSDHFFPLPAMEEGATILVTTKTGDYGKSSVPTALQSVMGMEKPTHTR
Procedure: as §1, §2

[9] = target: T2, CD3D&E protein (Cat #: CT038-H2508H, …); experiment: ELISA, coated CD3D&E; remark: listed apart in the source
CD3 on Jurkat cells [10] = target: T3, CD3 on Jurkat cells; experiment: flow cytometry on Jurkat cells; remark: listed apart in the source
Procedure: as §5

[11] = target: T2, CD3D&E protein (Cat #: CT038-H2508H, …); experiment: SPR (BIAcore 8K), antibody captured by anti-human Fc, CD3D&E as analyte
Procedure: Briefly, the mouse anti-human Fc antibodies were coupled to a CM5 biosensor chip. The anti-CD3 antibodies of the disclosure in the HBS-EP buffer (Cat #: BR-1006-69, GE Life Sciences) at the concentration of 1 μg/ml was flowed through the chip, where about 100 RU of the antibodies were captured by the mouse anti-human Fc antibodies. Serially diluted CD3D&E molecules (Cat #: CT038-H2508H, Sino Biological) in the HBS-EP buffer (Cat #: BR-1006-69, GE Life Sciences) (2-fold dilution starting at 20 μg/ml) were respectively flowed through the chip. Chip regeneration was performed with 3 M MgCl₂.

Row | Binder | EC50 [1] [µg/mL] | Kd [2] [nM] | EC50 [3] [µg/mL] | EC50 [4] [µg/mL] | EC50 (CD3 on Jurkat cells [5]) [µg/mL] | EC50 (read off the curve) (CD3 on Jurkat cells [5]) [µg/mL] | Kd [6] [nM] | EC50 [7] [µg/mL] | binding result [8] | EC50 [9] [µg/mL] | EC50 (CD3 on Jurkat cells [10]) [µg/mL] | Kd [11] [nM]
1 | B1 | 0.221 | 8.09 | 0.337 | 0.0468 | 0.00173 | ~2 | 0.168 | 0.0117 | no binding (tested: about 30000 ng/ml (LOG10 about 4.5)) |  |  | 
2 | B2 | 0.285 | 256 | 0.373 | 0.141 | 0.00328 |  | 0.206 | 0.0124 | no binding (tested: about 30000 ng/ml (LOG10 about 4.5)) |  |  | 
3 | B3 |  |  |  |  |  |  |  |  |  | 0.00816 | 0.0411 | 30
4 | B4 |  |  |  |  |  |  |  |  |  | 0.00402 | 0.119 | 6.54
